From the nanobody polyreactivity screen of Harvey et al. (2022)

Experiment: yeast display, Sf9 membrane polyspecificity reagent, FACS + sequencing; frameworks hold sequencing errors
In short: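 Genes from sorted yeast were amplified by colony PCR, read by MiSeq 2 × 250 sequencing and filtered on CDR length. These cells carried a synthetic nanobody library in Saccharomyces cerevisiae BJ5465 and were sorted by FACS into low and high (top ~1%) gates on anti-HA and streptavidin fluorescence. Polyreactivity is labelled according to the gate of origin.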

Row | Sequence | polyreactivity (PSR sort gate)
1 | QVQLVESGGGLVQAGGSLRLSCAASGRIFKYNAMGWYRQAPGKERELVAAISGRGVSTYYADSVKGRFTISRDNAKNPVYLQMNSLKPEDTAVYYCAAETVHGSADFDDWGQGTQVTVSS | low polyreactivity
2 | QVQLVESGGGLVQAGGSLRLSCAASGRIFKYNAMGWYRQAPGKERELVAVITSGGSTNYADSVKGRFTISRDNAKNTVYLQMNSLKPEDTAVYYCNARRYSTYDYWGQGTQVTVSS | high polyreactivity
3 | QVQLVESGGGLVQAGGSLRLSCAASGRIFKYNAMGWYRQATGKERELVAAISSSGGSTYYADSVKGRFTISRDNANNTVYLQMNSLKPEDTAVYYCAARYNSRVYRYDYWGQGTQVTVSS | high polyreactivity
4 | QVQLVESGGGLVQAGGSLRLSCAASGRIFKYYAMGWYRQAPGKERELVAAITSAGNTKYADSVKGRFTISRDNAKNTVYLQMNSLKPEDTAVYYCARGRYYVIGSYDYWGQGTQVTVSS | high polyreactivity
5 | QVQLVESGGGLVQAGGSLRLSCAASGRIFKYYAMGWYRQAPWKERELVDTIRRSGGSTYYADSVKGRFTISRDNAKNTVYLQMNSLKPEDTAVYYCNARYLFLQAWLRPYRSDYWGQVTQVTVSS | high polyreactivity
6 | QVQLVESGGGLVQAGGSLRLSCAASGRIFLFYAMGWYRQAPGKERELVASITSSGGDTSYYADSVKGRFTISLDNAKNTVYLQMNSLKPEDNAVYYCASRPWTSWRYYYWGQGTQVTVSS | high polyreactivity
7 | QVQLVESGGGLVQAGGSLRLSCAASGRIFLGYAMGRYRPARGKERELVAAISTSGGSTYYADSVKGRFTISRDNAKNTVYLQMNSLKPEDTAVYYCAARNVRTYVTGVDYDYWGQGTQVTVSS | high polyreactivity
8 | QVQLVESGGGLVQAGGSLRLSCAASGRIFLINAMGWYRQAPGKERELVAAITSSGGSTYYADSVKGRFTISRDNAKNTVYLQMNSLKPEDTAVYYCATRSYRGRPYNYWGQGTQVTVSS | high polyreactivity
9 | QVQLVESGGGLVQAGGSLRLSCAASGRIFLIYTMGWYRQAPGKERELVASITFRSGSTYYADSVKGRFTISRDNAKNTVYLQMNSLKPEDTAVYYCAADRGVLNQFDYWGQGTQVTVSS | low polyreactivity
10 | QVQLVESGGGLVQAGGSLRLSCAASGRIFLKYTMGWYRQAPGKERELVAAISRGGSTYYADSVKGRFTISRDNAKNTVYLQMNSLKPEDTAVYYCAATSYRRTGYNYWGQGTQVTVSS | high polyreactivity
11 | QVQLVESGGGLVQAGGSLRLSCAASGRIFLLNAMGWYRQAPGKERELVARISSGRTYYADSVKGRFTISRDNAKNTVYLNMNSLKPEDTAVYYCNATVSSSKYRYFYVNPYYYWGQGTQVTVSS | low polyreactivity
12 | QVQLVESGGGLVQAGGSLRLSCAASGRIFLLNPMGWYRKAPGKERELVARISSGRTYYADSVKGRFTISRDNAKNTVYLQMNILKPEDTAVYYCNATVSSSKYRYFYVNPYDYWGQGTQVTVSS | low polyreactivity
13 | QVQLVESGGGLVQAGGSLRLSCAASGRIFLRNAMGWSRQAPRKERELVAAISSSGGRTYYADSVKGRFTISRDNAKNTVYLQMNSLKPEDTAVYYCNARWHGSFDYWGQGTQVTVSS | low polyreactivity
14 | QVQLVESGGGLVQAGGSLRLSCAASGRIFLRNDMGWYRQAPGKERELFAGISSDGSTYYADSVKGRFTISRDNAKNTVYLQMNSLKPEDTAVYYCAAERWGNPTDYQFWRPYDYWGQGTKVTVSS | low polyreactivity
15 | QVQLVESGGGLVQAGGSLRLSCAASGRIFLRNDMGWYRQAPGKERELVAGISSDGSTYYADSVKGRFTISRDNAKNTVYLQMNSLKPEDTAVYYCAAERWGNPTDYQFWRPYDYWGQGTQVTVSS | low polyreactivity
16 | QVQLVESGGGLVQAGGSLRLSCAASGRIFLRYALGWYRQAPGKEREWVAVITWSGGSTNYADSVKGRFTISRDNAKNTVYLQMNSLKPEDTAVYYCAVDNTGRSWPYDYWGQGTQVTVSS | low polyreactivity

Row | Sequence | polyreactivity (PSR sort gate)
17 | QVQLVESGGGLVQAGGSLRLSCAASGRIFLSNAMGRYRQAPRKDRELVAAISWTGGSTYYADSVKGRFTISRDNAKNTVYLQMNSLKPEDTAVYYCAASTVGQTYSYYVDTYDYWGQGTQVTVSS | low polyreactivity
18 | QVQLVESGGGLVQAGGSLRLSCAASGRIFLSNGMGWYRQAPGKERELVAGITTGGGDSTYYADSVKGRFTISRDNAKNTVYLQMNSLKPEDTAVYYCNADSVYAGFDYWGQGTQVTVSS | low polyreactivity
19 | QVQLVESGGGLVQAGGSLRLSCAASGRIFLSYAMGWYRQAPGKERELVAAIRSTGTRTYYADSVKGRFTISRDNAKNTVYLQMNSLKPEDTAVYYCAVGDYGLWSYDYWGQGTQVTVSS | low polyreactivity
20 | QVQLVESGGGLVQAGGSLRLSCAASGRIFLSYTMGWYRQAPGKERELVAAISRGGRTYYADSVKGRFTISRDNAKNTVYLQMNSLKPEDTAVYYCAKKYGRYGSLRGRTIDDYWGQGTQVTVSS | low polyreactivity
21 | QVQLVESGGGLVQAGGSLRLSCAASGRIFLVNAMGWDRQAPGKERELVAAINFISGSTYYADSVKGRFTISRDNAKNTVYLQMNSLKPEDTAVYYCAAYSYWSYVQRYNLEYDYWGQGTQVTVSS | low polyreactivity
22 | QVQLVESGGGLVQAGGSLRLSCAASGRIFLVYAMGWYIQAPGKERDLVASISSRGSSTNYADSVKGRFTISRDNANNTDYLQMNSLKPEDTAVYYCAAGVYRPRYQSTAYDYWGQGTQVTVSS | high polyreactivity
23 | QVQLVESGGGLVQAGGSLRLSCAASGRIFLVYAMGWYRQAPGKERELVAAISWRGGRTYYADSVKGRFTISRDNAKNTVYLQMNILKPEDTAVYYCAAASKYSQFEYDYWGHGTQVTVSS | high polyreactivity
24 | QVQLVESGGGLVQAGGSLRLSCAASGRIFLVYAMGWYRQAPGKERELVAAISWRGGRTYYADSVKGRFTISRDNAKNTVYLQMNSLKPEDTAVYYCAAASKYSQFEYDYWGQGTQVTVSS | high polyreactivity
25 | QVQLVESGGGLVQAGGSLRLSCAASGRIFLVYVMGWYRQAPAKERELVAANSWSGGSTYYADSVKGRFTISRDNAKNTVYLQMNSLKPEDTAVYYFAAYYRGRNFDYWGQATQVTVSS | high polyreactivity
26 | QVQLVESGGGLVQAGGSLRLSCAASGRIFLWNAMGWYRPAPGKERELVAGISWRGSSTYYADSVKGRFTISRDNAKNTVYLQMNSLKPEDTAVYYCAARTRGGRGYGMYYWGQGTQVTVSS | high polyreactivity
27 | QVQLVESGGGLVQAGGSLRLSCAASGRIFLWYAMGWYRQAPGKERELVAAISWDTGNTYYADSVKGRFTISRDNAKNTVYLQINSLKPEDTAVYYCNADNYEWGNNYGYWGQGTQVTVSS | low polyreactivity
28 | QVQLVESGGGLVQAGGSLRLSCAASGRIFLWYAMGWYRQAPGKERELVAAIWRGGSTYYADSVKGRFTISRDNAKNTVYLLMNSLKPEDTAVYYCAAEDVYFGYDYWGQGTQVTVSS | low polyreactivity
29 | QVQLVESGGGLVQAGGSLRLSCAASGRIFLWYAMGWYRQAPGKERELVAVITGGGSTNYADSVKGRFTISRDNAKNTVYLQMNSLKPEDTAVYYCATEGYGHGGETDGGVYSDLGYWGQGTQVTVSS | low polyreactivity
30 | QVQLVESGGGLVQAGGSLRLSCAASGRIFLYYAMGWYRQAPGKERELVAAIDSSGGNTNYADSVKGRFTISRDNAKNTVYLQMNSLKPEDTAVYYCAADFYVSADRWPNYDYWGHGTQVTVSS | low polyreactivity
31 | QVQLVESGGGLVQAGGSLRLSCAASGRIFLYYAMGWYRQAPGKERELVAAITSSGGDTYYADSVKGRFTISRDNAKNTVYLQMNSLKPEDTAVYYCAALGGRYRASTYGYWGQGTQVTVSS | high polyreactivity
